Source: the DeepSol protein solubility set

Assay: soluble on expression in E. coli; label from the status in PepcDB or PDB records

Sequence	soluble on expression in E. coli
MIDSRLLAWAYLSKVVEGPNAHLQKLLKEGHDVERIAFGIKHREEWIGEGLLKNTDSRYSIDTAQTDLETIAKLGGRLITPEDDEWPMEELDHAFGFAASGMSDHVRTYQDDALPPHALWIRGGNLRTLSAQSVTLVGTRAISQYGTEVTREFTQNLVSHQWTIISGGALGVDSVAHSEAVRAQGSTIAIAACGLDRSYPSHNRDLFNQIAKSGKGALVSEYPPGTPPQRHRFLTRNRLVAALSQGTVVVEAAWRSGALNTLSWCAGLGRIAMAVPGPVNTAGSLGCHERIRNGSAQMVTSADDVRSLLGAVGAMDSQTQYELNFAATPVQGLTRNELRVFDALDDRGEGREAASIATEAGLTLQLTIFLLIALNKRGIVKRDGTAWSRNAEMP	not soluble
MGSDKIHHHHHHMRIAIIAITRNGARLGTQLRDGLGSAELYVLQKFAGQAGTGAVPFAGELKGLVAELWPAFDGFVFIMATGIVVRMVAPHLVAKDLDPAVVVMDDAGKFAVSLLSGHLGGANELACRCAFVTGAREVITTATDANNLPSFDMLAKEEGWAIDDLCRVKTLNALILEGEEIAVVDPTDRVRTAFHGTARLTFHDTFVEALQSGAKGFVFVTNRRLPPQAQADSLLILRPRNLALGIGCNSGTGAEEIAAVVGAQMKRLFLSLKSVACIGSAVAKQDEAGLLAFAREHGLPLRFFESGELNSVTVPSPPSAHALEAIGATGVAEPAAVLASNGGRLLLKKIKSGNVTLAIAEIP	not soluble
KTISLYKDSIPKEKTEGTDAILISDNQLINQLQTAAKTSSSQNKANTAAITFKQSNKSETDQSTTSQVIGYTTTASLKADKKNIFDVKKLNNEKSERKIIVGATVETLNQANTLQANEAIIKPAPGKYQSTDSHKVMITQGPNIVGIHANEKEDKETQKFINW	soluble
LSECKTGNGKNYRGTMSKTKNGITCQKWSSTSPHRPRFSPATHPSEGLEENYCRNPDNDPQGPWCYTTDPEKRYDYCDILECEEECMH	soluble
MNDQYHRAARDGYLELLKEATRKELNAPDEDGMTPTLWAAYHGNLESLRLIVSRGGDPDKCDIWGNTPLHLAASNGHLHCLSFLVSFGANIWCLDNDYHTPLDMAAMKGHMECVRYLDSIAAKQSSLNPKLVGKLKDKAFREAERRIRECAKLQRRHHERMERRYRRELAERSDTLSFSSLTSSTLSRRLQHLALGSHLPYSQATLHGTARGKTKMQKKLERRKQGGEGTFKVSEDGRKSARSLSGLQLGSDVMFVRQGTYANPKEWGRAPLRDMFLSDEDSVSRATLAAEPAHSEVSTDSGHDSLFTRPGLGTMVFRRNYLSSGLHGLGREDGGLDGVGAPRGRLQSSPSLDDDSLGSANSLQDRSCGEELPWDELDLGLDEDLEPETSPLETFLASLHMEDFAALLRQEKIDLEALMLCSDLDLRSISVPLGPRKKILGAVRRRRQAMERPPALEDTEL	soluble
MAHHHHHHMNAKNDASESLLCGGEDISALVVDLGFSTTKIGHNQEDTPRVFLRSTCGEDVSPDGGSPRGDPSPKLKFPLNLHNPKEHLRIKPLFERNPVDNTTHMNSDVFERILRYGIEGVESKRVFHCSDEIPTPVKLGGLNLKIEEHPILLSEENIHNHRVRAEMTEILFETFNIPAVYFAKKAKLTAFSLGRSNALVIDIGGSSLNVTPVYEGYVLQRNSLQFGVGGDYFDRLIYGMLRKDQVRVVPYYEQGRGGSGGLGSASASCSPSCSFSGATHHPNVHSSYEEEAILDVIRYMKESICKVRVAHQSSANKKSETTSGGLKNGKEVEPTGQTHNGAKNVNAPKWQTGQTEEEEFFELPDGVKIKTDKYRYDIAEELFRAVPSAHNFNGLPEAIVNCIISSDVDIRKELLQAIIVTGGSSLFPGLVDRLYNSLREKECFSQSIKMKILNMTSSVECLYSSWLGGSILASLGTFQQLWVSRAEYDDAGHAIVSDRCF	not soluble
MNELREKDESYRSFLLLSAISSEEPLSQREIARQVGIALGLVNSYLKHLVDKGFVRIKSFPRNRYAYLLTPRGLAEKSRLAYEHLSSFTTLFRVARQDYLALFRALKTQGVGRVAFCGVDEVAEIAYLSLREVGLELALVMDQATDGREFFGKPVVSIPHGLLAGNHHIVITTFKRREALREELLQRGVASELLHQAGEPAGETQSIREEHP	not soluble
MGSDKIHHHHHHMNKYIMLLMVSLLSACSSTPRKPIPDDPFYAPVYPDAPATQTAATGSIFLDSQASSLYSDIRAHKIGDIITVVLMESTQAKKSATNDIKKGSDMSMDPLFAGGGNVTIKGVPLDLKYKDAYNTKRESDADQSNSLAGSISANVMQVLSNGNLVIRGEKWISINNGDEFIRVTGIVRSQDIKPDNTIESVRVANARIQYSGTGTFADAQKVGWLGQFFLGEWWPF	not soluble
MGALIPSSTLFNIFDFNPKKVRIAFIAVGLRGQTHVENMARRDDVEIVAFADPDPYMVGRAQEILKKNGKKPAKVFGNGNDDYKNMLKDKNIDAVFVSSPWEWHHEHGVAAMKAGKIVGMEVSGAITLEECWDYVKVSEQTGVPLMALENVCYRRDVMAILNMVRKGMFGELVHGTGGYQHDLRPVLFNSGINGKNGDGVEFGEKAFSEAKWRTNHYKNRNGELYPTHGVGPLHTMMDINRGNRLLRLSSFASKARGLHKYIVDKGGESHPNAKVEWKQGDIVTTQIQCHNGETIVLTHDTSLQRPYNLGFKVQGTEGLWEDFGWGEAAQGFIYFEKIMNHSHRWDSSEKWIKEYDHPMWKKHEQKAVGAGHGGMDYFLDNTFVECIKRNEAFPLDVYDLATWYSITPLSEKSIAENGAVQEIPDFTNGKWKNAKNTFAINDDY	soluble
MSLYRLLIVEDEHLIRKWLRYAIDYQSLNILVVGEAKDGKEGAQLIQEEQPDIVLSDINMPIMTAFDMFEATKGQSYAKIILSGYADFPNAQSAIHYGVLEFLTKPLEKQALIDCLKTIMARIEEHKEKHLQEHTELYLPLPQANDQVPEVIKDMLAWIHSHFHGKIVISQLAHDLGYSESYLYTVTKKHLHITLSDYINQYRINQAIQLMFREPDLMVYQIAEAVGIYDYRYFDRVFKKYLGQTVKAFKEEHIFKQMDEGHHHHHH	soluble
MGSDKIHHHHHHMKINMPENVQTILNKLHSNGYQAYIYGACIRDYLLGKEPINWDITTNALPNNTVVIFDENEGFTSIPSVEDYGIVTLHFKGESCQVNTFRTGEARRFADDISEDLLHKDFTMNSIAYNEQAGIVDPYNGVGDIEKRLIRCAQNPYEQMQEDSARILRAVRFESQLGFKIEAELLQAMKDLKDTVPASGSRVRNEFIQLLLSEQPSRSIRRLLELGLLERLIPELMPAIGFDTHSSYHDKDVFEHSLVVLDNTEPNLTLRLAALLHDIDKPNCLTIDEDGEGHCYGHASGGSEMAQAILGRLNFDRKTIQAVSSLIKEHMNDFGNISDLSIKRLIRRVGPDNIDRLFELQLADIKGSALSSRDPERITKIRNKCFEVLSRREPLTVHDLDISGYDLLSLGYPPGKKIGETMDYLLDQVIDNPSLNQRDTLIALLKNRK	not soluble
MVEARSRHEFVALQLRQRIMQRQYAVGESLPSESMLCAEFEVSRGPVRQALATLKNEGLIQLSQGKPAVVRSHDITQTLDTFTPFSQWARRTGRVAGSRTLEISRRRVSEPAASALGSAPDDFVVEVLRVRLLDGEPTMIERSTFTDRVGSLLFDFDIDTGSITDYLTSRGVRFESMEHVLDAVAATGVDAENLRIDPGSPLLRERRTSRDQNGDTFEYADDRYRPDLVAFSIVNARTIDPRLPSDDGNGA	not soluble
MSSIVCHPILDSQNGIATDAVIKKQRPPPLVLSRPKDLIQEACQRLVLSDQQLRRIMQSMEKSMEQGLATSTKKVAVKMLPTYVDSVPNGTESGDFLALDLGGTNFRVLHIKLQGKETKMTGKIFRVPESIMRGTGEALFDHIAGCMAKFMGENDLKDAQKLPLGFTFSFPCEQEGLTKGKLVTWTKGFKASGVEGVDVVTLLHEACHRRKDIDIDVVALLNDTVGTLMACAFQENSCQIGVIVGTGTNACYMERLDRIPKLAGYVDEHGVTPEEMIINTEWGAFGDDGALDFLRTEWDEVVDRESINPGQHLYEKMISGMYMGECARVVLEDLAKQGLLFGGNSDAISVPHCFPTKFVSEIDSDLLEDDDRTFQKTYQILEDIGVEMITANDCANVAYVCSLISTRAAHLTAAGIAMLLNRMNKKHVTVGVDGSVYRFHPTYPTLLDAKIGELIVGDIEYKLMLSEDGSGRGAALVAAVATRLKEEKLAASLSSSSSNQ	not soluble
